The text below walks through data of patent publication JP2021136920A.

Test [1] addresses A−peakを架橋させたBSA(A−peak−BSA) (bovine) (UniProt P02769). In words: SPR, Biacore T200; A-peak-BSA amine-coupled on CM5 (72 RU), antibody 0.1953-50 nM, 1:1 binding model.
Test [2] has as its target Glycer−AGEs由来新規構造体修飾―ウシ血清アルブミン(GAL13−BSA) (bovine) (UniProt P02769). In words: SPR, Biacore T200; GAL13-BSA amine-coupled on CM5.
Test [3] addresses グリセルアルデヒド由来AGEs含有ウシ血清アルブミン(Glycer−AGEs−BSA) (bovine) (UniProt P02769). In words: SPR, Biacore T200; Glycer-AGEs-BSA amine-coupled on CM5, antibody 0-400 nM.

B1: 新規モノクローナル抗体PB−1 (antibody, V domains shown)
VH: EVRLQQSGPELVKPGTSVKISCKASGYSFTGYYMHWVKQSPVKSLEWIGRIIPYNGATSYNQNFKDKASLTVDKSSRTAYMDLHSLTSEDSAVYYCARSRYYGRAPYYFDYWGQGTTLTVSS
VL: DVVVTQTPLSLPVSLGDQASISCRSSQSIVHSNGNTYLEWYLQKPGQSPKLLIYKVSNRFSGVPDRISGSGSGTDFTLKISRVEAGDLGVYSCFQGSHVPFTFGSGTKLEIK
Molecule B1 showed a Kd in test [1] of 4.15 nM.

B2: 新規モノクローナル抗体SJ−5 (antibody, V domains shown)
VH: EVMLVESGGRLVKPGGSLKLSCAASGFTFSSYGMSWVRQTPEKRLEWVATISGGGSYTYYPDSVKGRFTISRDNVKNNLYLQMSSLRSEDTALYYCARRGAYGDYGWFAYWGQGTLVTVSA
VL: DIVLTQSPATLSVTPGDSVSLSCRASQSINNNLHWYQQKSHESPRLLIKCASQSISGIPSRFSGSGSGTDFTLSINSVETEDFGMYFCQQSNSWPLTFGAGTKLELK
For the molecule B2, the values for the Kd in test [2] and in test [3] were 87.5 nM and 57.4 nM, respectively.
